In patent publication US20030200555 one finds Km data, which are given here for one protein.

The target of this data set is T1, coumarin-CO-REVNFEVEFR
T1 chain: REVNFEVEFR

B1: BACE 1, soluble (transmembrane domain and cytoplasmic extension excluded) human protein produced in a baculovirus expression system (protein)
chain: TQHGIRLPLRSGLGGAPLGLRLPRETDEEPEEPGRRGSFVEMVDNLRGKSGQGYYVEMTVGSPPQTLNILVDTGSSNFAVGAAPHPFLHRYYQRQLSSTYRDLRKGVYVPYTQGKWEGELGTDLVSIPHGPNVTVRANIAAITESDKFFINGSNWEGILGLAYAEIARPDDSLEPFFDSLVKQTHVPNLFSLQLCGAGFPLNQSEVLASVGGSMIIGGIDHSLYTGSLWYTPIRREWYYEVIIVRVEINGQDLKMDCKEYNYDKSIVDSGTTNLRLPKKVFEAAVKSIKAASSTEKFPDGFWLGEQLVCWQAGTTPWNIFPVISLYLMGEVTNQSFRITILPQQYLRPVEDVATSQDDCYKFAISQSSTGTVMGAVIMEGFYVVFDRARKRIGFAVSACHVHDEFRTAAVEGPFVTLDMEDCGYNIPQTDESTLMT
As to B1, the Km entry was “The Km of the substrate is greater than 100 µM and cannot be determined due to the limit of solubility of the substrate”.
